Substitutions are numbered along the chain they refer to. Numbers in names are those of the source.
B1: GST-1L3V (glutathione S-transferase fused L3V domain of IP3R1) (other, not shown: a dimerising Fc or GST; large carriers; small tags and cut ends)
chain: KDDFILEVDRLPNETAVPETGESLANDFLYSDVCRVETGENCTSPAPKEELLPAEETEQDKEHTCE
notes: Expressed in E. coli, purified on GSH-Sepharose; also called GST-L3V
B2: MBP-ERp44 (maltose binding protein fused ERp44) (other, mouse, UniProt Q9D1Q6 30-406, looked up, not shown: large carriers)
chain: EIASLDSENIDEILNNADVALVNFYADWCRFSQMLHPIFEEASDVIKEEYPDKNQVVFARVDCDQHSDIAQRYRISKYPTLKLFRNGMMMKREYRGQRSVKALADYIRQQKSNPVHEIQSLDEVTNLDRSKRNIIGYFEQKDSENYRVFERVASILHDDCAFLSAFGDLSKPERYNGDNVIYKPPGRSAPDMVYLGSMTNFDVTYNWIQDKCVPLVREITFENGEELTEEGLPFLILFHMKDDTESLEIFQNEVARQLISEKGTINFLHADCDKFRHPLLHIQKTPADCPVIAIDSFRHMYVFGDFKDVLIPGKLKQFVFDLHSGKLHREFHHGPDPTDTAPGEQDQDVASSPPESSFQKLAPSEYRYTLLRDRDEL
B3: HA-ERp44 (haemagglutinin A epitope-tagged ERp44) (other, mouse, UniProt Q9D1Q6 30-406, looked up, not shown: small tags and cut ends)
chain: B2 chain
notes: whole, on cells; tagged vectors made by PCR
B4: ERp44-C58S (other, UniProt Q9D1Q6 30-406, looked up)
chain: B2 chain with C29S
notes: whole, on cells

Assays:
[1] = target: MBP (maltose binding protein alone) (UniProt P0AEX9 27-392 = MBP); test: GST pull-down, pH 5.2, 4 mM Ca2+
[2] = target: B2; test: GST pull-down, acid buffer with Ca2+
[3] = target: IP3R1 of mouse cerebellar microsomes in planar lipid bilayer (mouse, UniProt P11881 1-2749); test: cell-based or functional assay
[4] = target: T1, GFP-IP3R1 (IP3R1 fused N-terminally with green fluorescent protein) (UniProt P11881 1-2749); test: co-immunoprecipitation from COS-7 cells exposed to ATP (activator of purinergic receptors), DSP crosslink
T1 construct: Expressed in COS-7 or DT40-TKO cells; also called GFP-IP3R1-N; not shown: green fluorescent protein

[5] = target: T2, IP3R1 (inositol 1,4,5-trisphosphate receptor type 1), untagged, expressed in cells (mouse, UniProt P11881 1-2749); test: interaction in transfected cells; data not shown
T2 construct: whole, on cells; ER membrane channel; species is printed for the DT40-KMN60 line, not for the COS-7 vector; also called mouse IP3R1 in DT40-KMN60 cells
T2 sequence (P11881 whole entry): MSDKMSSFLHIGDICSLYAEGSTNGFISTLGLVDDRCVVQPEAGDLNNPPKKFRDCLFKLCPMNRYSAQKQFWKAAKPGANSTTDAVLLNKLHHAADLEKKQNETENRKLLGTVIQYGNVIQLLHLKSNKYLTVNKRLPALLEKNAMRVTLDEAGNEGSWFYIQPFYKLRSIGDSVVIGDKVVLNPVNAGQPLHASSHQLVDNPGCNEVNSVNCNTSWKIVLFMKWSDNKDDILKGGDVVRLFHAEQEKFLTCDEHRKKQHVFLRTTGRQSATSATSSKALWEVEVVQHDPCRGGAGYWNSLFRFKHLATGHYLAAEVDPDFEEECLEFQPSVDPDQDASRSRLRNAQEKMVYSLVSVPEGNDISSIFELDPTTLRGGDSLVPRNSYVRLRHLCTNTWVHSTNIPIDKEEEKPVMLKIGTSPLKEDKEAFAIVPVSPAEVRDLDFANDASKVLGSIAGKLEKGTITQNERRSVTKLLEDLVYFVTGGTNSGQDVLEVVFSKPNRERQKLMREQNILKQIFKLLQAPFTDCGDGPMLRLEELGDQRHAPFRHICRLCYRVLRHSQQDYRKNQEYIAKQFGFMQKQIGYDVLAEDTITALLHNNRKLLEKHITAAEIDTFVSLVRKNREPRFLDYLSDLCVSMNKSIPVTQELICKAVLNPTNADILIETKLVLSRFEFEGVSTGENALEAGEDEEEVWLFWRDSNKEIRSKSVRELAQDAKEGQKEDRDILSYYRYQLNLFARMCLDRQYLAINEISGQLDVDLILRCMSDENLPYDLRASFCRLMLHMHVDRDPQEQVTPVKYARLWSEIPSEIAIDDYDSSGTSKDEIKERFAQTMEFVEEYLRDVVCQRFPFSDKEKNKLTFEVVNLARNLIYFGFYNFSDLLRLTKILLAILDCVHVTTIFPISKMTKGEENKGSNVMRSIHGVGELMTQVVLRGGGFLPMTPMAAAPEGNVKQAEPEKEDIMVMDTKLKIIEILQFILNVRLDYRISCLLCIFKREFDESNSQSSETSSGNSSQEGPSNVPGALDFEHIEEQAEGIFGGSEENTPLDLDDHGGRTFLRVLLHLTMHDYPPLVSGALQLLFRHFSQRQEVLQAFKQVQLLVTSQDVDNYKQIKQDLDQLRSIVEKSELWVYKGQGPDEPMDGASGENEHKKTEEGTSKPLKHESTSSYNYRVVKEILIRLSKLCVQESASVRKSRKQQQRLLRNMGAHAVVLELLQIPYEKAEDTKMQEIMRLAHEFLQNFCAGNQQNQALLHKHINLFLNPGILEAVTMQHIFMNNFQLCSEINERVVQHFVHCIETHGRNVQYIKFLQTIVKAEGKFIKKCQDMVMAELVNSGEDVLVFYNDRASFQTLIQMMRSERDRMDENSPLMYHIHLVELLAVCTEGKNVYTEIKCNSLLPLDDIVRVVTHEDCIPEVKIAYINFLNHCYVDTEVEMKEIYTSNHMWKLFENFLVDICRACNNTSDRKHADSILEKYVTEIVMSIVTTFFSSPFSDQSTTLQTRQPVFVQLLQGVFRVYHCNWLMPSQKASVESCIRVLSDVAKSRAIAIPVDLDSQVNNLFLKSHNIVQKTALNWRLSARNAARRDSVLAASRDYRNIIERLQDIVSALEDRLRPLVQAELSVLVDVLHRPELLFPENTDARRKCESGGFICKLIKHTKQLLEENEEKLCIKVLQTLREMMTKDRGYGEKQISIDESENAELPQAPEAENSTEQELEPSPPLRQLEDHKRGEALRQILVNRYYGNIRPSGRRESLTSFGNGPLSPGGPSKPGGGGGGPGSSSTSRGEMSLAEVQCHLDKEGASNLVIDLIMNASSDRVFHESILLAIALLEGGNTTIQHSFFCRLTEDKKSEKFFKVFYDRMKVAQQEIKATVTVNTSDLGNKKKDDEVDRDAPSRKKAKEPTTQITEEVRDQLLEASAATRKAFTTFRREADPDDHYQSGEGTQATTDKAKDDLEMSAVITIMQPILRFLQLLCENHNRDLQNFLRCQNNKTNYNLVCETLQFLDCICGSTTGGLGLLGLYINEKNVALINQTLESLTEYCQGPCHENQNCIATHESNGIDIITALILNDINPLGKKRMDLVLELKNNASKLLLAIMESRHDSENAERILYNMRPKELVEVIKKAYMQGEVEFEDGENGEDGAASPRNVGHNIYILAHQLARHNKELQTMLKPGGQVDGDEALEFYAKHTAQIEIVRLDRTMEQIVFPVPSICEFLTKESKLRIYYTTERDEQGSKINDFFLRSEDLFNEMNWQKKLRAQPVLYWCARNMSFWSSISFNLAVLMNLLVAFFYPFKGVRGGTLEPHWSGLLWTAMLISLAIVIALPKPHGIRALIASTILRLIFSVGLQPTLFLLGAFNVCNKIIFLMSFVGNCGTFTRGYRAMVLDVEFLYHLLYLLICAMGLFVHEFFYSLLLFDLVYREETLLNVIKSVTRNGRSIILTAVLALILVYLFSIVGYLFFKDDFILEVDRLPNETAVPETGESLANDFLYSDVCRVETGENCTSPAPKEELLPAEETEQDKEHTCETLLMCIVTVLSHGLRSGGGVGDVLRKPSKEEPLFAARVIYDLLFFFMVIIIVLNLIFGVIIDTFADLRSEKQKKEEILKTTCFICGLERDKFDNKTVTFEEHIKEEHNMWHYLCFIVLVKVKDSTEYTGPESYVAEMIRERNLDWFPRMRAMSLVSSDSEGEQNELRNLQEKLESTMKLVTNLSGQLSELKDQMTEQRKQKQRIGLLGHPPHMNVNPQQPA

## B1
[1]
  binding result: no binding
[2]
  binding result: binds

## B2
[3]
  Single-channel open probability (IC50): 1000 nM

## B3
[4]
  fold increase of GFP-IP3R1 co-precipitated with HA-ERp44 after the treatment against untreated cells: ~2 fold

## B4
[5]
  binding result: binds
